{"source": "the DeepSol protein solubility set"}
{"experiment": "soluble on expression in E. coli; label from the status in PepcDB or PDB records"}
{"sequence": "MLKIFNTLTRQKEEFKPIHAGEVGMYVCGITVYDLCHIGHGRTFVAFDVVARYLRFLGYKLKYVRNITDIDDKIIKRANENGESFVAMVDRMIAEMHKDFDALNILRPDMEPRATHHIAEIIELTEQLIAKGHAYVADNGDVMFDVPTDPTYGVLSRQDLDQLQAGARVDVVDDKRNPMDFVLWKMSKEGEPSWPSPWGAGRPGWHIECSAMNCKQLGNHFDIHGGGSDLMFPHHENEIAQSTCAHDGQYVNYWMHSGMVMVDREKMSKSLGNFFTVRDVLKYYDAETVRYFLMSGHYRSQLNYSEENLKQARAALERLYTALRGTDKTVAPAGGEAFEARFIEAMDDDFNTPEAYSVLFDMAREVNRLKAEDMAAANAMASHLRKLSAVLGLLEQEPEAFLQSGAQADDSEVAEIEALIQQRLDARKAKDWAAADAARDRLNEMGIVLEDGPQGTTWRRK", "soluble on expression in E. coli": "soluble"}
{"sequence": "MDEEKIVLIGNESDLLHCGYNFALRAGGKRYPSAAHYTHYQILMSLNLPETAVEELLCTNSCDVHQKALVILQENMPDGHTINSLAAYLSESLRSYSIHALQLRAESDKDFEKTLMKTNEALLIVCDEKNPQLGIGMNDKTFMEWMAKEKADSRQISYWMKNEHTKPADLGQNKLGQYLMWLRFEIRERKKQGILTRPVVEVAGLSTDKDDEPIMISINDLVISLEGIFRPLSNYYAFPFEMKRERYRSVEHYAYEKLFNSLKLDEKAIEKIQTTPAPLNVPVVASKLLRKLEINPETIAEKTSKMDRWRQSAMKHKIYHNEYLQQLLLSTGSAILIDSSLGDPLWTCGATEVELQHLLTKSYVTPEKLVGWMLDGEETNTPKSVRHLYGNKSGLLLMELREKLSLQTTSRIPLVKLSKMNLNPLSGIVTPNVICFTPESVFHPLYPAEIRCSADGPPLPSPVHYVATQAAKFLSMNQEDTEYILEGPSSIQCWSRLHEVIESRGRGLELEQTWWMDKRMQFIKESLQLLLEQHPALLRALLDTGDSMLVYCSRFSSMDAELSMGMREMDFRYWLQEVDLTTKQLIELCTRPMAFRPPYIGGNRLGMILMELRREFVLQGVFPQQLPELQLTADSILGSNSPTENFMTSEYFDILQPWNYTALWINPLFLLAKDGNQEAMAQCTRIKTAPRMVTIDDEKVTDIVENLVNDETQEEALNSIAPEDLRAVFMKLCARLRGKIETLDRQSMELSMVAMETHRLQSIRRSLADTAERAETEGPSSSTGPSISAPPIPSRPGHSNYRMAAGRERDREEEREKDRERLQSQLSTSSSGPQGSASRKERMEYKIPTTSRRKFGKDRDRLPEKSSSDRGRDKHLDTPTKKRVNQSPPSRKAAPSPAKKPAISTSTPAVVVPPKPKRDPEEELSDGEILSTDEEDN", "soluble on expression in E. coli": "not soluble"}
{"sequence": "MSLCEKEINNNNNNNELTEKSKEEIEKDEIEYLEYLKYRKEIIDSHCHIHEDVEHLQESCDLPFKKILLMGTTVEDWDKINQLADKINDDNKIIRCFGIHPWFVYNYLPPTELIGKIKEGDGSNDSIIISIDETWRIKMKELLLKYPNSIVGEIGIDKVTKVRLNGFNKNDQESQMRVFRDQIEIANELDRLVSLHCVQLQGQLLTFFQSLDIDKFPPAIALHTFGGKPATVDQFCKMASGKGDKFYFGLSFINLTFSKVDKLIQAIPDDRLLLESDQNSPTQVDQSLFKLIQKISISKNWTIQKTIEQTTLNTLNFLSKQIKKEGHHHHHH", "soluble on expression in E. coli": "soluble"}
{"sequence": "MSLSARSSASSWSEEPVQSNMDISTGHMILSYMEDHLKNKNRLEKEWEALCAYQAEPNSSFVAQREENVPKNRSLAVLTYDHSRVLLKAENSHSHSDYINASPIMDHDPRNPAYIATQGPLPATVADFWQMVWESGCVVIVMLTPLAENGVRQCYHYWPDEGSNLYHIYEVNLVSEHIWCEDFLVRSFYLKNLQTNETRTVTQFHFLSWYDRGVPSSSRSLLDFRRKVNKCYRGRSCPIIVHCSDGAGRSGTYVLIDMVLNKMAKGAKEIDIAATLEHLRDQRPGMVQTKEQFEFALTAVAEEVNAILKALPQEGHHHHHH", "soluble on expression in E. coli": "soluble"}
{"sequence": "MGSDKIHHHHHHMRRLRKALAAGSFLFRGTFVQSDPIPARARRPIMMLEHIQARTHHARRGALRNSFTYGVDYVLTDLGPAGPLLISRNRFNLWSLWDHRHGGARDNGHGVHWFRSLLQERGLATENAQLLLLTQPSFLWFHFNPVSFWIALVDGTPRAFVAEVNSTFGQRHCYFCARDGFAPIRKSDTLIAEKLMHVSPFQRIAGHYAFNFGMTDTQIDIRISFENGDHGVLATLSGERRPATSASLAWAAIRRPLGAARVLALIHWQAAILYLKRAPFLKKQHPPEHLVSDGYDLRGTKE", "soluble on expression in E. coli": "not soluble"}
{"sequence": "MAKPSTSLLKRRLDIAEIVRKNGEIKVDDLAEMLSVSGVTIRNDLNYLEQQGYLKRSFGGAIYTAQPVRAAVSHEVVQSQALEHSVELELAKQVARLVCDDDTVFLGAGEVLRKALPFLGDYRDLCLIINDLSHVAPARDYIDGEIVLLGGVLGHSGQALGGEIAIQSLQQFQPSCCLVMVDHISEDGTLNVKNESAAALLSECLRLSGQSIAVVAQRPIHDVARYPVGKLNTLSAIITPQIVAAEYHSRFLADGLTNSYTNNECLTWINPTLHQARLEHHHHHH", "soluble on expression in E. coli": "not soluble"}
{"sequence": "MADKYLTQSPAGEFVMFASDDGEVRVECRFEQETLWLPQATIANLYQITPQAVTQHIKAIYEEGELEQNATCKSYLQVQQEGSRQVSRNRLHYSLPVILAVGYRVRSPRGTQFRQWATQTLQKYLIKGFVMDDERLKNPPVGSSAVPDYFDEMLERIRDIRASERRVYLRVREIFALAADYQPSLKETTQFFQTIQNKLHFACTGHTAAELIHQRADASQPHMGLTSYKGEEVRKDDVTVAKNYLTQDEVSELNRVVNMWLDFAEDQARRRQQIFLRDWQDKLDQFLQFNDREVLQGAGKVTKKMADEKAQAEYSQFAEQQRRLKEAEGEKDIAGLLQWETEPKK", "soluble on expression in E. coli": "not soluble"}
{"sequence": "AIAGSRGVLSIIFDLDNTLIDTAGAGRTAIQKVCELLKSTHVQESHIRDICERFLRKLLQESFDPSEGKTIDDVRIQHWCEALQETPGTDPDPALASRCYYTWKNTRSQALSLSSEVRALLEELQKNYKLLLLTNGDTQTQREKIEAVRCEGLFSLVVVGGDRPEQKPARSIFTHCFESAGVRPQDCIMVGDSLTTDIQGGINAGVRATVWINAGSKSLPQDSVTPDYTLPTVLHLNEVLAQLA", "soluble on expression in E. coli": "soluble"}
{"sequence": "VLSARCHIRHIGSPGKDARCAHLSATLRPGIGISPTNVGNATVLADGTPAKPIQGAETMQRARHTGSCFSANARGPAISSGNPSRAGCGVPSSTTTPSSTPQAIRLLACTDSDALTVTRTAR", "soluble on expression in E. coli": "not soluble"}
{"sequence": "MAHHHHHHMPFSLGELQNVFLDALTGCPPDAPQQTRDTAVTVAGASIFAGSWQPLESTRVPVRAYLRGTGEFDTEDSCRRAVMRVVDATLNDVLNDDAVNAFIGAKACESADIVGACEHILRKYLLWMLDGYLHYDGTPQCPFYDALKSTVCAFSVEWGQTFGPMFAEAQSPDEFFSLLVTRGAQHHATAVATNPDDAKVRMATAMSIQVFLMAKTYSPSTPFPSRVAL", "soluble on expression in E. coli": "soluble"}
{"sequence": "MSWGTELWDQFDNLEKHTQWGIDILEKYIKFVKERTEIELSYAKQLRNLSKKYQPKKNSKEEEEYKYTSCKAFISNLNEMNDYAGQHEVISENMASQIIVDLARYVQELKQERKSNFHDGRKAQQHIETCWKQLESSKRRFERDCKEADRAQQYFEKMDADINVTKADVEKARQQAQIRHQMAEDSKADYSSILQKFNHEQHEYYHTHIPNIFQKIQEMEERRIVRMGESMKTYAEVDRQVIPIIGKCLDGIVKAAESIDQKNDSQLVIEAYKSGFEPPGDIEFEDYTQPMKRTVSDNSLSNSRGEGKPDLKFGGKSKGKLWPFIKKNKLMSLLTSPHQPPPPPPASASPSAVPNGPQSPKQQKEPLSHRFNEFMTSKPKIHCFRSLKRGLSLKLGATPEDFSNLPPEQRRKKLQQKVDELNKEIQKEMDQRDAITKMKDVYLKNPQMGDPASLDHKLAEVSQNIEKLRVETQKFEAWLAEVEGRLPARSEQARRQSGLYDSQNPPTVNNCAQDRESPDGSYTEEQSQESEMKVLATDFDDEFDDEEPLPAIGTCKALYTFEGQNEGTISVVEGETLYVIEEDKGDGWTRIRRNEDEEGYVPTSYVEVCLDKNAKDS", "soluble on expression in E. coli": "soluble"}
{"sequence": "MFPSVDPEKCEDKGECVSTCPYEVFELGIRTAEEISELSFIGRIEARAHGNRMARTSHIDMCHVCGDCVIVCSEKAIRLLPR", "soluble on expression in E. coli": "not soluble"}
{"sequence": "MGSDKIHHHHHHMYSTTQHQSPETVVTVSSLGKAYKIYNSKRDRAKQLIFQNRRKYFQEHWALRNISFDLRRGESIGIVGKNGSGKSTLLQLICGTLKPSQGEVIVNGKIAALLELGSGFNPEFSGRENVYLNASILGLNKQEIQERLDDILAFADIGNYVDQPVRTYSSGMVVRLAFSVIAHVDADILIVDEALSVGDAYFTQKCMRFIQRFQEKGSLLFVSHDANAILSLCNRALLINQGELKRVGKPKEVIEDYTRDLQKRNLADQNNKINRPERMKEQENTAHMKRQSGVQYTQKNIENEIMKWSDYRCKLINSSNLANTIVITRFDETLTTRETYGGEKAEITNVELENIETNKTIQNIKGGEIVRLRLKFEARTAIGRPIIGFILKNSKGLTILGDNTNNSISENNDFNAFEGDKVTTDFVFTVPMLQQGEYMISVSVADGCITEHEILHWMNDALLLRSQCTSIAAGLAGVPMHSISIEIEK", "soluble on expression in E. coli": "not soluble"}
{"sequence": "AEKQVTAGRHTYALPELFLVMATQNPIEQEGTYPLPEAQLDRFLLHLEVDYPDAEHELAILRINRGEAKGECSIERPSLSQQDIFTARQEVLDIHMAEAIEQYIVRLVMATRRASEYDSELDKWLAMGVSPRATIALDRCARAHAWLAGRDFVSPEDVQAMAYPVLRHRLLLSYHAQAEGVTSNQVIDKLLNLVGSA", "soluble on expression in E. coli": "not soluble"}
{"sequence": "MIELPVVPSASDRKSKPDWLRVKLPIGKEYTKLRALVDEHKLHTICQSGNCPNMGECWGAGTATFMILGNVCTRSCSFCAVATGRPTEYDIDEPKRVAEAVRLMNVKHCVITSVNRDELKDKGAEVWYQTVVRVKEESPQTTIETLIPDVKSDWASLERMISGGQEVVSHNMETVERLYRRVRPQAKYSRSLEEIQRIKAFGKRTKSGIMLGLGETKDEVLKAMDDLVAHGLDVLTLGQYLQPTKMHLEVAEFIHPDQFAEYKEIGLSKGLNYVESGPLVRSSYHAEKHI", "soluble on expression in E. coli": "not soluble"}
{"sequence": "SEQIMSSQQVARRMMLDIGDKPQEHLVAIYLDTQNRIIQQKTVFIGGVRRSIAEPREILYYACHLMATSLIVVHNHPSGEAYPSRNDIDFTQKIKRSCDDLGICLLDHLIVGKSTYYSFREEREDFEL", "soluble on expression in E. coli": "not soluble"}
{"sequence": "MIPSVSPQQDALTGQPLRVVERDGVHYTLLGTAHISQASVAAVKQEVESGCYDAIAVELDAQRLQALCDPDTLAKLDLIQVIRKGQLALFAANLALAAYQRRLAKQLGIEPGAELKTAVTMARERDLPVHLIDREVGLTFKRASAKLGFLGKMKLGGGLIAGLFAADEVGEEEIEKLKQGDMLEASFGDFANESPELYQTIIAERDRYMATRLREEVNSATPKVLVVVGAGHLTGLAKHLENDTEPPTELRALLEKVQQKKR", "soluble on expression in E. coli": "not soluble"}
{"sequence": "MGSDKIHHHHHHMDYRQPDLSVITVNYNGFHDTCEFIDSWAATVFSVSYEMIVIDNGSTANEAALLQKTYPFIQAVRSERNLGFAGGNNLGINLAKGKYLFLLNNDVCMVKDAIPLLIKRLLSSDKIAGVSPLIRDYAEPHAIQFAGYTQLSPITLRNRAIGKGKINKDHYPAQKTPYLHGAAMLLKKTIIDKLSLMPEEYFLYYEELDWCTYINREGYELWYDPACEIWHKDSSSTGKESPLKYYYLSRNRLLYAYRNLFDWKLPVSILYQTMIVCPKNILTALGKGKKAIAKAHWEGTKAFFKLRNKDKQP", "soluble on expression in E. coli": "not soluble"}
{"sequence": "MDYNNITEALQAFRTEKAYRHAPLRSCFFDMDGVLFDSMPAHARSWVEAAGECGIAAEPLDFYRWEGQKGSDTIKILFERGYGRLPTEKEIADMYGRKSQLFALYNSGNVIDDAPALVSDVCDRGLRIMLVTGSSQTDILQRLQRSYGDNFSPANMVTGADVHRGKPHPEPYLKALECVGMSPSEAFVVENAPLGVR", "soluble on expression in E. coli": "not soluble"}
